Data on three molecules can be found in patent US20180127504A1 (ACADEMIA SINICA, published 2018).

Residue numbers refer to the chain shown, from its start.

In one test the target is T1, c-Met-Fc control protein (UniProt P08581 25-932, limits assumed).
T1 construct: Bought control protein; also called Met-Fc (R&D); c-Met-Fe; not shown: Fc part of the bought fusion protein; not described
Kind of test: phage ELISA on coated MET-Fc, anti-M13-HRP detection. The procedure: (§1) The selected phages were further examined by ELISA screening. The 96-well plates were coated with […] of VEGFR2-Fc, Met-Fc (R&D), or BSA (Sigma) protein in 0.1 M sodium bicarbonate overnight at 4° C. After blocking with 1% BSA in PBS (w/v) for 2 hr at room temperature, 70-randomly selected phage clones were added to the plates at a 1:2 dilution in 1% BSA, and incubated for 1 hr at room temperature. Following washes with PBST, the plates were incubated with a 1:2000 dilution of horseradish peroxidase (HRP)-conjugated mouse anti-M13 phage antibody (GE) for 1 hr. After washing with PBST, the colorimetric reaction was developed with the peroxidase substrate ortho-phenylenediamine (OPD; Sigma) plus H₂O₂ for 15 min, and then terminated by the addition of 3 N HCl. The absorbance at 490 nm was determined using a microplate reader (SpectraMax, Molecular Devices). Plasmid DNA of positive clones were isolated and sequenced using the pCANTAB5 sequencing primer set.
(§2) After four rounds of affinity selection (biopanning), the titer of bound phage increased by as much as 3,455-fold (FIG. 1A).
(ELISA stands for enzyme-linked immunosorbent assay.)

For test [1], the target named is T2, VEGFR2-Fc recombinant protein (R&D Systems) (human, UniProt P35968 20-764).
T2 construct: Bought protein; also called VEGFR2 recombinant protein; immobilized VEGFR2; not shown: Fc part of the bought fusion protein; not described
T2 sequence (P35968 20-764 limits assumed): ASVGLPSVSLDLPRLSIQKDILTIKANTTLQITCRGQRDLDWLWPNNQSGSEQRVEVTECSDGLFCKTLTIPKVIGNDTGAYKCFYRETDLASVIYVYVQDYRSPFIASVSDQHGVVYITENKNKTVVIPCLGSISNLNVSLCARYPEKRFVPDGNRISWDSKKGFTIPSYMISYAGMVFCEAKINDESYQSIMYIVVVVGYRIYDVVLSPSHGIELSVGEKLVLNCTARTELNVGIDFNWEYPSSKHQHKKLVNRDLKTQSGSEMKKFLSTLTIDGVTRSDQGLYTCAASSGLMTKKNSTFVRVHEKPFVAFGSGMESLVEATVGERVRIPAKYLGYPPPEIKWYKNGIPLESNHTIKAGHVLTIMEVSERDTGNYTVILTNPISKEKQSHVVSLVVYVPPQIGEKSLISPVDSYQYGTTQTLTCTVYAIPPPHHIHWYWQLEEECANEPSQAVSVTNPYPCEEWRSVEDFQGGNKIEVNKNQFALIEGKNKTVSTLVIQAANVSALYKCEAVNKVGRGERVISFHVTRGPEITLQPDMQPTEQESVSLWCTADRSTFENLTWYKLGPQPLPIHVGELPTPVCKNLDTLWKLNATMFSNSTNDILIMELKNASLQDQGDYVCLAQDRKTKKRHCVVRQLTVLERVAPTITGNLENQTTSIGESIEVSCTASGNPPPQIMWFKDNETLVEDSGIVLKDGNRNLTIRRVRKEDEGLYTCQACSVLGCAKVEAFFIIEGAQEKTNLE
The experiment in a line: phage ELISA, 1x10^9 cfu phage on coated VEGFR2-Fc, anti-M13-HRP detection. How it is done:
as §1, §2

The target of test [2] is T3, VEGFR2 on the cell surface of human umbilical vein endothelial cells (HUVEC) (human, UniProt P35968 20-1356).
T3 construct: Endogenous receptor of human cells; also called cell-surface VEGFR2; cellular VEGFR2
T3 sequence (P35968 20-1356 limits assumed): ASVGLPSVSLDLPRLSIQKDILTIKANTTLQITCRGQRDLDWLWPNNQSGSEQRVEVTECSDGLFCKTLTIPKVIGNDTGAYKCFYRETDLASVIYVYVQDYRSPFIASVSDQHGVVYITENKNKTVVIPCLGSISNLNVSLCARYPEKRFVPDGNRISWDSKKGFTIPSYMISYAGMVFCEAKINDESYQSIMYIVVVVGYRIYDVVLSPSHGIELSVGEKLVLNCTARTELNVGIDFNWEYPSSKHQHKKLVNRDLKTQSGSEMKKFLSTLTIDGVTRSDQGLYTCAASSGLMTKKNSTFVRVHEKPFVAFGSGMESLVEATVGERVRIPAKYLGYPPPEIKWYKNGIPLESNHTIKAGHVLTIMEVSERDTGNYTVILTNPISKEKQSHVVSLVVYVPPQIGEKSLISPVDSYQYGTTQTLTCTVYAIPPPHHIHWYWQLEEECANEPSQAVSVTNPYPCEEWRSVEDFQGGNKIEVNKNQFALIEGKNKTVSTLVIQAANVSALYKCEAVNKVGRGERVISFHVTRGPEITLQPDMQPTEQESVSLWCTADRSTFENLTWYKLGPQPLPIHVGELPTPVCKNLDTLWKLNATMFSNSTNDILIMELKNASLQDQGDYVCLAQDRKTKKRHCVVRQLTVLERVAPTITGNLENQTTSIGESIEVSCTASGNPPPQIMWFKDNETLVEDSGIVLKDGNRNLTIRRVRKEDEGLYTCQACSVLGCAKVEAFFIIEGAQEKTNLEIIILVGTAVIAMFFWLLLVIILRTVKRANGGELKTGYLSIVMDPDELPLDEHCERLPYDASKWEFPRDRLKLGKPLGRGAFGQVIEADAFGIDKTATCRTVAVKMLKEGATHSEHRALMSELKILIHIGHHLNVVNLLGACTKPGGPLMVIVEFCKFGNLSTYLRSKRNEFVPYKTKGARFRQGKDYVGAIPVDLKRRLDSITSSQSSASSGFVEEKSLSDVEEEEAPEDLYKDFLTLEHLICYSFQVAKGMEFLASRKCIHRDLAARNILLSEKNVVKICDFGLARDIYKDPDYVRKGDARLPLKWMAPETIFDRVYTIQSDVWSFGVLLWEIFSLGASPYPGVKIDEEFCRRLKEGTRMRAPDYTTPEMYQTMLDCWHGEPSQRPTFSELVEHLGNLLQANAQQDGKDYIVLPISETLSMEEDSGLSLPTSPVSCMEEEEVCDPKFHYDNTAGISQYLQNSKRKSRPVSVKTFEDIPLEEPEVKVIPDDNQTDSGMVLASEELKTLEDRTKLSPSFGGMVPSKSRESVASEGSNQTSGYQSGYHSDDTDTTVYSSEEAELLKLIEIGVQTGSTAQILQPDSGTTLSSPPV
Kind of test: flow cytometry on HUVECs, 1x10^10 cfu phage, anti-M13 and PE-labelled secondary antibody. How it is done: About 1×10⁴ HUVEC were incubated with the selected anti-VEGFR2 phage clones at 4° C. for 1 hour in FACS buffer (PBS containing 1% fetal bovine serum). After the cells were washed with FACS buffer, they were first incubated with mouse anti-M13 phage Ab for 1 hr at 4° C., and then with R-phycoerythrin-conjugated goat anti-mouse IgG (Jackson Immuno Research) for 30 min at 4° C. Flow cytometry was performed with a FACSCantoII (BD), and emission fluorescence intensity was measured with FACS Diva software (BD) to quantitatively compare binding affinities.
as §2

Test [3] deals with T2, VEGFR2-Fc recombinant protein (R&D …). The experiment in a line: SPR, BIACORE T100, VEGFR2-Fc coupled to CM5 chip, IgG as analyte. How it is done: (§3) The affinity and kinetics of anti-VEGFR2 antibodies were measured by surface plasmon resonance in a BIACORE T100™ (GE healthcare). VEGFR2-Fc protein was coupled to an EDC- and NHS-activated CM5 sensor chip in a BIACORE flow cell, and then blocked with ethanolamine according to the manufacturer's directions. Associated and dissociated phases were monitored under continuous flow of 30 μl/min, using antibody concentrations ranging from 0.1 to 100 nM for 5 min. Regeneration was performed by injection of regenerate buffer (0.2 M NaCl, 10 mM glycine, pH 2.7). To determine binding constants, the sensorgrams were fit globally to a sample 1:1 interaction model using BIAevaluation software (GE healthcare).
(§4) We analyzed the affinity of both human antibodies to VEGFR2 using a BIACORE T100™.

Test [4] has the same target. Kind of test: solid-phase competitive ELISA: antibody against 4 nM VEGF-A on immobilized VEGFR2.
Test [5] shares this target. Kind of test: surface plasmon resonance, BIACORE T100, VEGFR2-Fc coupled to a CM5 chip, purified IgG as analyte. The procedure: as §3, §4

T1 sequence (P08581 25-932 limits assumed): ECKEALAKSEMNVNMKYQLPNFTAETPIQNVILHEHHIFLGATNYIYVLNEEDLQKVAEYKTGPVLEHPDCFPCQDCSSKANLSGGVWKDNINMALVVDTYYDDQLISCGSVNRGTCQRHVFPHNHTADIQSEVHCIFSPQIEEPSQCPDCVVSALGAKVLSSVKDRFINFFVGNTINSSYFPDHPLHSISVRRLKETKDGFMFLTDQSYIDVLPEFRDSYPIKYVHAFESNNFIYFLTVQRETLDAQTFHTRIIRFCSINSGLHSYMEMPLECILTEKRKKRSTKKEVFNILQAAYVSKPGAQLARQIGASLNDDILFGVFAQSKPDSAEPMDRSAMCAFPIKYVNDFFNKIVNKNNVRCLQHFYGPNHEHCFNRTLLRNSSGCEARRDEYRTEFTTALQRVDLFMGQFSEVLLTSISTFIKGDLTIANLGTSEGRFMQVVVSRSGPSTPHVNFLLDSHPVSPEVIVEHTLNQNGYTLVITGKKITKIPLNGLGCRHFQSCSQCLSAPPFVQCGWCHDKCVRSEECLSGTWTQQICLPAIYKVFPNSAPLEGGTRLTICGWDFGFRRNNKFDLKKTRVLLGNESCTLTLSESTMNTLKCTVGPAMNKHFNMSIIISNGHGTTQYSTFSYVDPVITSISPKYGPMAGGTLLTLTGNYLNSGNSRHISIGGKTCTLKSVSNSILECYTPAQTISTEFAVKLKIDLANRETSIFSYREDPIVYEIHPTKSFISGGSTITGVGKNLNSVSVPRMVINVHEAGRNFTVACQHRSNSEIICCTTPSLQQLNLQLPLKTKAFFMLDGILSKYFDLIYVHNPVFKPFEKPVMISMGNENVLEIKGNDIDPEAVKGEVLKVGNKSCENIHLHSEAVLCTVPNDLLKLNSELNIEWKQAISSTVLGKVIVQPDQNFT

B1: R2PC45 (scFv, V domains shown)
VH: QVNLRESGGGVVQPGRSLRLSCAASGFTFSSYAMHWVRQAPGKGLEWVAVISYDGSNKYYADSVKGRFTISRDNSKNTLYLQMNSLRAEDTAVYYCAREQDYGSSSGDAFDIWGQGTMVTVSS
VL: DIQMTQSPSSLSASVGDRVTITCRASQRISSYLNWYQQKPGKAPKLLIYDASNLQSGVPSRFSGSGSGTDFTLTINGLQPDDFAIYFCHQSYSAPPTFGQGTKVEIK
notes: also called anti-VEGFR2 scFv phage clone 45
Regarding B1, the binding result is reported as “no binding (tested: 1x10^9 cfu)” in the test with c-Met-Fc control protein, “binds” in test [1] and “binds” in test [2].

B2: anti-VEGFR2-AF fully human antibody (hAb) (antibody, human IgG1)
heavy: not shown
light: DIQMTQSPSSLSASVGDRVTITCKASDDIINYLNWYQQKPGEAPKLLIYDASILETGVPSRFSGSGSGTDFTFTISSLQPEDIATYYCQQLDDIPITFGGGTKLEIK
notes: also called anti-VEGFR2-AF hAb; R2S12-AF in human IgG1 backbone; not shown: kappa constant region of vector p-Kappa-HuGs
Take B2: in test [3], the Kd (as a rule, the equilibrium constant for the complex coming apart) is 0.264 nM. The IC50 (commonly the concentration that inhibits the measured activity by half) in test [4] came to 0.88 nM. Also, in test [5], the off-rate constant (koff) (usually the first-order rate constant of dissociation) was found to be 0.000442 s⁻¹ and the kon (commonly a measure of how fast the partners come together) was 1.67e+06 M⁻¹ s⁻¹.

B3: anti-VEGFR2 fully human antibody (hAb) (antibody)
heavy: not shown
light: B2 light with L91Y, D93I, I94L, I96L
notes: also called anti-VEGFR2 hAb; R2S12 in human IgG1 backbone; not shown: kappa constant region of vector p-Kappa-HuGs
Regarding B3, the Kd in test [3] was determined as 2.1 nM. Also, the IC50 in test [4] is 1.87 nM. In test [5], the dissociation rate constant (koff) came to 0.000472 s⁻¹ and the kon is 225000 M⁻¹ s⁻¹.
